Test results as given in patent publication US20230277625A1.
Changes are numbered by the printed parent chain. In names and notes the source's numbering stands.

T1: Human IL-18Rα ectodomain (amino acids 19-329), biotinylated (human), Q13478
T1 chain: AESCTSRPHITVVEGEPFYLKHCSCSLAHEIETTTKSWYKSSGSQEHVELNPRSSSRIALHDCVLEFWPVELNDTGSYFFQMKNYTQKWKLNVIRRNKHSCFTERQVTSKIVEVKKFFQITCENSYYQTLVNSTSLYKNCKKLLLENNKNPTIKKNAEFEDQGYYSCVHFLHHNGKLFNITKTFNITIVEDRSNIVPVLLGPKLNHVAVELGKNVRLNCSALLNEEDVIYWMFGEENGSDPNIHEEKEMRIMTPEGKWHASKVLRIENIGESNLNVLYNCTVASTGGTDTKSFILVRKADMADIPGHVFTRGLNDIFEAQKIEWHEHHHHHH

B1: SEQ ID NO: 125 (human D2D IL-18 consensus hD2D-CS3), Q14116 37-193 (ligand)
chain: YFGKLESKLSVIRNLNGQVLFIDQGNRPLFADMESSDCRDNAPRTIFIISFYKDSQPRGLAVTISVKCEKISTLSCENKIISFKEMNPPDNIKDTKSDIIFFLRSVPGHDNKMQFESSSYEGYFLACEKERDLFKLILKKEDELGDRSIMFTVQNED
modifications: here or on the partner: biotin on the AviTag (BirA ligase)
B2: SEQ ID NO: 123 (human D2D IL-18 consensus hD2D-CS1), Q14116 37-193 (ligand)
chain: B1 chain with E34T, S35D, F51M, L60M
modifications: here or on the partner: biotin on the AviTag (BirA ligase)
B3: SEQ ID NO: 124 (human D2D IL-18 consensus hD2D-CS2), Q14116 37-193 (ligand)
chain: B1 chain with E34T, L60M
modifications: here or on the partner: biotin on the AviTag (BirA ligase)

Molecular target: T1, Human IL-18Rα ectodomain (amino acids …)
Assay: on-yeast binding isotherm (flow cytometry), drawn summary table, IL18Rα (KD)
Details: remark: other sources report otherwise

Row | Binder | Kd [µM]
1 | B1 | 9.7
2 | B2 | 0.43
3 | B3 | 21
